The values below come from the supplement of paper PMC12764529.

The nature of data set [1]: folding stability dG unfold from trypsin proteolysis; higher = more stable. An outline of the steps: (§1)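 Bayesian fitting of sequencing counts gave K50 for each design. Unfolding free energy followed by setting this against a sequence-predicted unfolded-state K50 and a shared folded-state K50, either per protease or with trypsin and chymotrypsin combined. The designs, under 80 residues and lacking cysteine, were digested in a PA-tagged cDNA display format at 11 threefold-diluted protease concentrations and without protease, and only those with AlphaFold2 dimer inter-PAE above 15 were kept.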

The nature of data set [2]: folding stability dG unfold from chymotrypsin proteolysis; higher = more stable. An outline of the steps: as §1
A short description of data set [3]: folding stability dG unfold (combined trypsin and chymotrypsin); higher = more stable. In short, it runs like this: as §1

± gives the half width of the 95% confidence interval.

Consider “SAGGSAGGSAMTTVTSTTEIPPSALTVKTSVSTAPDGSLVETTTVVLPDGSVVTTTLSTVASAGGSAGGSAG [r3_7_JUSTAS]”, for which the “folding stability dG unfold” value in data set [1] worked out at 0.974 ± 0.035 kcal/mol; in data set [2], 1.19 ± 0.018 kcal/mol; in data set [3], 1.11 ± 0.047 kcal/mol.
Taken in the same sequence, the figures for “SAGGSAGGSAMVVEERRLPDDLLVRTEVEPVEDNELPGPALRVTVTTVDLKTGEETPEVIPESAGGSAGGSA [r18_66_JUSTAS]” were -0.713 ± 0.16 kcal/mol, 0.168 ± 0.03 kcal/mol and -0.0827 ± 0.091 kcal/mol.
Consider “SAGGSAGGSAMVVRGEDLTPEALLELLEENPEEVTLETKDHIATVKFNPETGELEITSVDDISAGGSAGGSA [r18_75_TrMRF]”, for which the “folding stability dG unfold” value in data set [1] turned out to be 1.38 ± 0.12 kcal/mol; in data set [2], 1.73 ± 0.099 kcal/mol; in data set [3], 1.6 ± 0.13 kcal/mol.
The corresponding values for “SAGGSAGGSANGFVFKIKEVFEVDGKLFLKVTGTDKEYIIPDNAIIEPLEDDSVKVIILPPESAGGSAGGSA [r18_468_TrMRF]” are 1.19 ± 0.021 kcal/mol, 1.35 ± 0.086 kcal/mol and 1.31 ± 0.061 kcal/mol.
Regarding “SAGGSAGGSANIDIKVEENPGNGYRKVEVTMTVDDLRELFGNEPIPPGEERQIKMTIYLPIPSAGGSAGGSA [r18_327_TrROS]”, the “folding stability dG unfold” value in data set [1] was 0.772 ± 0.13 kcal/mol; in data set [2], 1.37 ± 0.095 kcal/mol; in data set [3], 1.21 ± 0.17 kcal/mol.
“SAGGSAGGSANMPPEELADWIADKFQQRHGHPVKEIEVEHDPENNNYTITVEFDDKERTITLSAGGSAGGSA [r18_145_TrROS]”: the “folding stability dG unfold” value is -0.271 ± 0.15 kcal/mol in data set [1], 0.839 ± 0.28 kcal/mol in data set [2] and 0.591 ± 0.22 kcal/mol in data set [3].
As to “SAGGSAGGSANRKVIQFDSPEEILEAIDEAPEDDPVIIEWHDPDGGEPWWIKFDGDEIELIMSAGGSAGGSA [r18_407_TrROS]”, the “folding stability dG unfold” value is -0.66 ± 0.23 kcal/mol in data set [1], -0.277 ± 0.41 kcal/mol in data set [2] and -0.511 ± 0.45 kcal/mol in data set [3].
Taken in the same sequence, the figures for “SAGGSAGGSAPDIKIEKIGENTYKITLNFEFTFEDGSKVKVKITFTFTVNFPEDDPLLKELFSAGGSAGGSA [r18_215_TrMRF]” were 2.71 ± 0.061 kcal/mol, 3.213 ± 0.028 kcal/mol and 3.02 ± 0.11 kcal/mol.
Taken in the same sequence, the figures for “SAGGSAGGSAPDNVEIEVYELPAGMYRVKIWPPGGNRHEFNFPPGEPKKIKIPPGVSIEIWPFSAGGSAGGS [r12_517_TrROS]” were 0.462 ± 0.15 kcal/mol, 0.763 ± 0.29 kcal/mol and 0.743 ± 0.22 kcal/mol.
“SAGGSAGGSAPELVKKIAEELPVPVKVEPFGNVLLVELELPNEDGEPVKLRLAIPIPPELLGSAGGSAGGSA [r18_27_TrMRF]”: the results for the “folding stability dG unfold” value in data set [1], in data set [2] and in data set [3] were -0.195 ± 0.11 kcal/mol, 0.909 ± 0.12 kcal/mol and 0.463 ± 0.19 kcal/mol, respectively.
The corresponding values for “SAGGSAGGSAPGKSITITFLFIWPDGWILVMKITFDPDGPGDIDIEWQWIPIPPPEPPPEDPSAGGSAGGSA [r18_409_TrROS]” are 3.61 ± 0.29 kcal/mol, 5.37 ± 0.32 kcal/mol and 5.16 ± 0.46 kcal/mol.
For the sequence “SAGGSAGGSAPIKITEHTYNPGDGMVWATAEAEDPNGWKIKLTIWFFPDGNIQIEITEIVPSAGGSAGGSAG [r3_7_TrROS]”, the figures for the “folding stability dG unfold” value in data set [1], in data set [2] and in data set [3] were 2.45 ± 0.18 kcal/mol, 4.39 ± 0.14 kcal/mol and 3.83 ± 0.28 kcal/mol, respectively.
Take “SAGGSAGGSAPKEVVVLDLKISPVPDPRYFPAEFTVYIPENGKPFPVTAVFDPEGGEVTIGSAGGSAGGSAG [r3_1_TrMRF]”: the results for the “folding stability dG unfold” value in data set [1], in data set [2] and in data set [3] were 2.7 ± 0.071 kcal/mol, 3.23 ± 0.1 kcal/mol and 3.04 ± 0.12 kcal/mol, respectively.
On to “SAGGSAGGSAPKPIEITFPAKSLEEAKIAAEEIKRAFEELEDVKVEVEYDPETGTVTVRVYGSAGGSAGGSA [r18_368_TrMRF]”, for which the “folding stability dG unfold” value in data set [1] came to 2.88 ± 0.12 kcal/mol; in data set [2], 3.58 ± 0.07 kcal/mol; in data set [3], 3.38 ± 0.088 kcal/mol.
For the sequence “SAGGSAGGSAPKVEPHPVTFTFENAVVTVTRYRVPDEDGNPLYFTSVSVFFLDKDGKPGFVFPSAGGSAGGS [r20_13_TrMRF]”, the “folding stability dG unfold” value in data set [1] stood at 3.28 ± 0.076 kcal/mol; in data set [2] it was 4.82 ± 0.069 kcal/mol; in data set [3], 4.35 ± 0.18 kcal/mol.
Take “SAGGSAGGSAPLIELRPPEEPLFLPLENLLGRGIPLEELAKLLEKLTGRKVEPVKPGYIRTGSAGGSAGGSA [r18_7_TrMRF]”: the “folding stability dG unfold” value in data set [1] was -0.192 ± 0.38 kcal/mol; in data set [2], -0.128 ± 0.25 kcal/mol; in data set [3] it was -0.161 ± 0.44 kcal/mol.
The corresponding values for “SAGGSAGGSAPNLEVEEQRNPDGGMEMEIIRLKNDGLTIFFMEMRPDDKTMTMLMLMPLDASAGGSAGGSAG [r3_126_TrROS]” are 2.19 ± 0.19 kcal/mol, 2.32 ± 0.13 kcal/mol and 2.48 ± 0.19 kcal/mol.
Consider “SAGGSAGGSAPNMDWVMIPIRVPPGEPPKVKITFPDGPTREFDPGRWVWIWFPPGDPMKIEPESAGGSAGGS [r12_553_TrROS]”, for which the “folding stability dG unfold” value in data set [1] was 1.04 ± 0.035 kcal/mol; in data set [2], 1.87 ± 0.13 kcal/mol; in data set [3] it was 1.54 ± 0.15 kcal/mol.
With “SAGGSAGGSAPPLKILRPEATVHPDGGVTVVAELEGGYLVVETVTFDPETGTASSSVEIVPLDSAGGSAGGS [r20_15_TrMRF]”, the entries for the “folding stability dG unfold” value in data set [1], in data set [2] and in data set [3] were -0.813 ± 0.12 kcal/mol, 1.03 ± 0.015 kcal/mol and 0.705 ± 0.047 kcal/mol, respectively.
The corresponding values for “SAGGSAGGSAPPNDWYVGIMEITININIDADQLPPPLREKFEKNGIKEIRITFVSVFPPDDFSAGGSAGGSA [r18_127_TrROS]” are 2.76 ± 0.21 kcal/mol, 3.56 ± 0.11 kcal/mol and 3.14 ± 0.19 kcal/mol.
Regarding “SAGGSAGGSAPPYKYVQIELWIPGPIEEIADELQDNFGIRSIDVKRDPENGWVRADIYFQFPSAGGSAGGSA [r18_275_TrROS]”, the “folding stability dG unfold” value worked out at 2.07 ± 0.046 kcal/mol in data set [1], 2.444 ± 0.024 kcal/mol in data set [2] and 2.26 ± 0.14 kcal/mol in data set [3].
Take “SAGGSAGGSAPRVRYRRRVLVYFPADGSVVPVVLEVSPGPLTLRLDLPAASFPPVRIAPLGSAGGSAGGSAG [r3_454_TrMRF]”: the “folding stability dG unfold” value turned out to be 1.28 ± 0.066 kcal/mol in data set [1], 2.58 ± 0.098 kcal/mol in data set [2] and 1.98 ± 0.14 kcal/mol in data set [3].
The corresponding values for “SAGGSAGGSAPVAYTITITYRDPDGSTRTLTLTFPNLTPEEAKEAAEALPIPASVVSIDITKASAGGSAGGS [r12_886_JUSTAS]” are 2.24 ± 0.059 kcal/mol, 3.745 ± 0.035 kcal/mol and 3.29 ± 0.082 kcal/mol.
The corresponding values for “SAGGSAGGSAPVFLRVEVENPNGERFELTAKLGDPIEIDPSVVDNVKVEVFDPDGNKAEFELNSAGGSAGGS [r12_380_TrMRF]” are 0.284 ± 0.042 kcal/mol, 0.611 ± 0.057 kcal/mol and 0.506 ± 0.069 kcal/mol.
The corresponding values for “SAGGSAGGSAPVFTSPEEAEKYAREKLLREKPESHPDLVVNVNVTVTTEPDGTITIEIDYKESAGGSAGGSA [r18_440_JUSTAS]” are 0.932 ± 0.092 kcal/mol, 1.72 ± 0.086 kcal/mol and 1.29 ± 0.14 kcal/mol.
Turning to “SAGGSAGGSAPWRIRIRDPNGKKVEIPWEEVADKFGIPPEEMTLDDILEAFANNIDRIEIVDSAGGSAGGSA [r18_403_TrROS]”, the “folding stability dG unfold” value is 0.91 ± 0.067 kcal/mol in data set [1], 0.361 ± 0.12 kcal/mol in data set [2] and 0.64 ± 0.081 kcal/mol in data set [3].
As for “SAGGSAGGSARITVTPEGGYWRVTIKGPGKTRTFQFPMPANEAEEIVEELQNPPIDIDVEPVSAGGSAGGSA [r18_103_TrROS]”, the “folding stability dG unfold” value was -0.328 ± 0.3 kcal/mol in data set [1], -0.142 ± 0.2 kcal/mol in data set [2] and -0.115 ± 0.14 kcal/mol in data set [3].
The corresponding values for “SAGGSAGGSASEIMDEFPNLEIDNVNPDHGMMIIKWPDGWYWRVNVGNGEIEPVSPEDLEDMSAGGSAGGSA [r18_381_TrROS]” are 0.447 ± 0.037 kcal/mol, 0.983 ± 0.083 kcal/mol and 0.828 ± 0.18 kcal/mol.
On to “SAGGSAGGSASLSPEKKVTIKTTVPQPTPPAVTTTLTGQFPSSLTLEELAEKDPNATVSITGSAGGSAGGSA [r18_279_JUSTAS]”, for which the “folding stability dG unfold” value in data set [1] was determined as 0.221 ± 0.059 kcal/mol; in data set [2], 1.36 ± 0.014 kcal/mol; in data set [3], 1.04 ± 0.055 kcal/mol.
The corresponding values for “SAGGSAGGSASMSPEELAEKYREEYEKKYGIPAVEVKVEVIPEEEKYVITIKLPGSEITVIVSAGGSAGGSA [r18_145_JUSTAS]” are 3.62 ± 0.26 kcal/mol, 2.74 ± 0.089 kcal/mol and 3.11 ± 0.13 kcal/mol.
Taken in the same sequence, the figures for “SAGGSAGGSASMTVRATLPNGEEIEFEADVIKADPGGDSVTVYLILPNGGEIPFEVELEEEESAGGSAGGSA [r18_163_TrMRF]” were 0.37 ± 0.042 kcal/mol, 0.706 ± 0.19 kcal/mol and 0.574 ± 0.076 kcal/mol.
On to “SAGGSAGGSASNVKILGLVSVDPETGLVRLAAYDPETGKVLYFIAPNADGEPLLLEVEENPGSAGGSAGGSA [r18_296_TrMRF]”, for which the figures for the “folding stability dG unfold” value in data set [1], in data set [2] and in data set [3] were 1.8 ± 0.041 kcal/mol, 2.44 ± 0.056 kcal/mol and 2.21 ± 0.071 kcal/mol, respectively.
The corresponding values for “SAGGSAGGSASPVPVVEVEITPVKLPGDETAAKITVLLEGDGEPVVVWFDSKDVEKVIEEVLASAGGSAGGS [r20_238_JUSTAS]” are 0.293 ± 0.12 kcal/mol, 0.847 ± 0.025 kcal/mol and 0.774 ± 0.11 kcal/mol.
For the sequence “SAGGSAGGSASSIVLTKTPGSYVLTEVELSSSTYPPSPPDYGSVVTVTPLEVVEREPGVPLPSAGGSAGGSA [r18_255_JUSTAS]”, the results for the “folding stability dG unfold” value in data set [1], in data set [2] and in data set [3] were 0.0789 ± 0.12 kcal/mol, 0.263 ± 0.19 kcal/mol and 0.176 ± 0.18 kcal/mol, respectively.
For the sequence “SAGGSAGGSASSMVKPEKLPNGEKVVVTTETVPDPNSDTPVTVVTTEIYKGDKIVEVKTTLVSAGGSAGGSA [r18_185_JUSTAS]”, the “folding stability dG unfold” value is 0.339 ± 0.038 kcal/mol in data set [1], 0.384 ± 0.12 kcal/mol in data set [2] and 0.439 ± 0.13 kcal/mol in data set [3].
Taken in the same sequence, the figures for “SAGGSAGGSASSMVTVTVSVSPDEGDEEVAKEIAKELGRPDAKVTKITYDPATGTLTITLVDSAGGSAGGSA [r18_481_JUSTAS]” were 1.61 ± 0.067 kcal/mol, 1.53 ± 0.062 kcal/mol and 1.58 ± 0.11 kcal/mol.
